Test results as given in patent publication US5616559, “Papillomavirus E2 trans-activation repressors” (Biogen, Inc., dated 1997).

B1: BPV1 E2 mutant 333V in the E2 repressor format (C-terminal 249 amino acids) (other)
chain: MAGAGRIYYSRFGDEAARFSTTGHYSVRDQDRVYAGVSSTSSDFRDRPDGVWVASEGPEGDPAGKEAEPAQPVSSLLGSPACGPIRAGLGWVRDGPRSHPYNFPAGSGGSILRSSSTPVQGTVPVDLASRQEEEEQSPDSTEEEPVTLPRRTTNDGFHLLKAGGSCFALISVTANQVKCYRFRVKKNHRHRYENCTTTWFTVADNGAERQGQAQILITFGSPSQRQDFLKHVPLPPGMNISGFTASLDF
B2: BPV1 E2 mutant 340S in the E2 repressor format (C-terminal 249 amino acids) (other)
chain: MAGAGRIYYSRFGDEAARFSTTGHYSVRDQDRVYAGVSSTSSDFRDRPDGVWVASEGPEGDPAGKEAEPAQPVSSLLGSPACGPIRAGLGWVRDGPRSHPYNFPAGSGGSILRSSSTPVQGTVPVDLASRQEEEEQSPDSTEEEPVTLPRRTTNDGFHLLKAGGSCFALISGTANQVKSYRFRVKKNHRHRYENCTTTWFTVADNGAERQGQAQILITFGSPSQRQDFLKHVPLPPGMNISGFTASLDF
B3: BPV1 E2 mutant 340R in the E2 repressor format (C-terminal 249 amino acids) (other)
chain: MAGAGRIYYSRFGDEAARFSTTGHYSVRDQDRVYAGVSSTSSDFRDRPDGVWVASEGPEGDPAGKEAEPAQPVSSLLGSPACGPIRAGLGWVRDGPRSHPYNFPAGSGGSILRSSSTPVQGTVPVDLASRQEEEEQSPDSTEEEPVTLPRRTTNDGFHLLKAGGSCFALISGTANQVKRYRFRVKKNHRHRYENCTTTWFTVADNGAERQGQAQILITFGSPSQRQDFLKHVPLPPGMNISGFTASLDF
B4: BPV1 E2 mutant 340Y in the E2 repressor format (C-terminal 249 amino acids) (other)
chain: MAGAGRIYYSRFGDEAARFSTTGHYSVRDQDRVYAGVSSTSSDFRDRPDGVWVASEGPEGDPAGKEAEPAQPVSSLLGSPACGPIRAGLGWVRDGPRSHPYNFPAGSGGSILRSSSTPVQGTVPVDLASRQEEEEQSPDSTEEEPVTLPRRTTNDGFHLLKAGGSCFALISGTANQVKYYRFRVKKNHRHRYENCTTTWFTVADNGAERQGQAQILITFGSPSQRQDFLKHVPLPPGMNISGFTASLDF
B5: BPV1 E2 mutant 386W in the E2 repressor format (C-terminal 249 amino acids) (other)
chain: MAGAGRIYYSRFGDEAARFSTTGHYSVRDQDRVYAGVSSTSSDFRDRPDGVWVASEGPEGDPAGKEAEPAQPVSSLLGSPACGPIRAGLGWVRDGPRSHPYNFPAGSGGSILRSSSTPVQGTVPVDLASRQEEEEQSPDSTEEEPVTLPRRTTNDGFHLLKAGGSCFALISGTANQVKCYRFRVKKNHRHRYENCTTTWFTVADNGAERQGQAQILITFGSPSQWQDFLKHVPLPPGMNISGFTASLDF
B6: BPV1 E2 mutant 399I in the E2 repressor format (C-terminal 249 amino acids) (other)
chain: MAGAGRIYYSRFGDEAARFSTTGHYSVRDQDRVYAGVSSTSSDFRDRPDGVWVASEGPEGDPAGKEAEPAQPVSSLLGSPACGPIRAGLGWVRDGPRSHPYNFPAGSGGSILRSSSTPVQGTVPVDLASRQEEEEQSPDSTEEEPVTLPRRTTNDGFHLLKAGGSCFALISGTANQVKCYRFRVKKNHRHRYENCTTTWFTVADNGAERQGQAQILITFGSPSQRQDFLKHVPLPPGINISGFTASLDF
B7: BPV1 E2 mutant 340G in the E2 repressor format (C-terminal 249 amino acids) (other)
chain: MAGAGRIYYSRFGDEAARFSTTGHYSVRDQDRVYAGVSSTSSDFRDRPDGVWVASEGPEGDPAGKEAEPAQPVSSLLGSPACGPIRAGLGWVRDGPRSHPYNFPAGSGGSILRSSSTPVQGTVPVDLASRQEEEEQSPDSTEEEPVTLPRRTTNDGFHLLKAGGSCFALISGTANQVKGYRFRVKKNHRHRYENCTTTWFTVADNGAERQGQAQILITFGSPSQRQDFLKHVPLPPGMNISGFTASLDF
B8: BPV1 E2 mutant 344L in the E2 repressor format (C-terminal 249 amino acids) (other)
chain: MAGAGRIYYSRFGDEAARFSTTGHYSVRDQDRVYAGVSSTSSDFRDRPDGVWVASEGPEGDPAGKEAEPAQPVSSLLGSPACGPIRAGLGWVRDGPRSHPYNFPAGSGGSILRSSSTPVQGTVPVDLASRQEEEEQSPDSTEEEPVTLPRRTTNDGFHLLKAGGSCFALISGTANQVKCYRFLVKKNHRHRYENCTTTWFTVADNGAERQGQAQILITFGSPSQRQDFLKHVPLPPGMNISGFTASLDF
B9: BPV1 E2 mutant 339M in the E2 repressor format (C-terminal 249 amino acids) (other)
chain: MAGAGRIYYSRFGDEAARFSTTGHYSVRDQDRVYAGVSSTSSDFRDRPDGVWVASEGPEGDPAGKEAEPAQPVSSLLGSPACGPIRAGLGWVRDGPRSHPYNFPAGSGGSILRSSSTPVQGTVPVDLASRQEEEEQSPDSTEEEPVTLPRRTTNDGFHLLKAGGSCFALISGTANQVMCYRFRVKKNHRHRYENCTTTWFTVADNGAERQGQAQILITFGSPSQRQDFLKHVPLPPGMNISGFTASLDF
B10: BPV1 E2 mutant 360S in the E2 repressor format (C-terminal 249 amino acids) (other)
chain: MAGAGRIYYSRFGDEAARFSTTGHYSVRDQDRVYAGVSSTSSDFRDRPDGVWVASEGPEGDPAGKEAEPAQPVSSLLGSPACGPIRAGLGWVRDGPRSHPYNFPAGSGGSILRSSSTPVQGTVPVDLASRQEEEEQSPDSTEEEPVTLPRRTTNDGFHLLKAGGSCFALISGTANQVKCYRFRVKKNHRHRYENCTTTSFTVADNGAERQGQAQILITFGSPSQRQDFLKHVPLPPGMNISGFTASLDF
B11: BPV1 E2 mutant 337L in the E2 repressor format (C-terminal 249 amino acids) (other)
chain: MAGAGRIYYSRFGDEAARFSTTGHYSVRDQDRVYAGVSSTSSDFRDRPDGVWVASEGPEGDPAGKEAEPAQPVSSLLGSPACGPIRAGLGWVRDGPRSHPYNFPAGSGGSILRSSSTPVQGTVPVDLASRQEEEEQSPDSTEEEPVTLPRRTTNDGFHLLKAGGSCFALISGTANLVKCYRFRVKKNHRHRYENCTTTWFTVADNGAERQGQAQILITFGSPSQRQDFLKHVPLPPGMNISGFTASLDF
B12: BPV1 E2 mutant 340F in the E2 repressor format (C-terminal 249 amino acids) (other)
chain: MAGAGRIYYSRFGDEAARFSTTGHYSVRDQDRVYAGVSSTSSDFRDRPDGVWVASEGPEGDPAGKEAEPAQPVSSLLGSPACGPIRAGLGWVRDGPRSHPYNFPAGSGGSILRSSSTPVQGTVPVDLASRQEEEEQSPDSTEEEPVTLPRRTTNDGFHLLKAGGSCFALISGTANQVKFYRFRVKKNHRHRYENCTTTWFTVADNGAERQGQAQILITFGSPSQRQDFLKHVPLPPGMNISGFTASLDF
B13: E2-85 (methionine, alanine and the C-terminal 83 amino acids of HPV16 E2) (other)
chain: MASNTTPIVHLKGDANTLKCLRYRFKKHCTLYTAVSSTWHWTGHNVKHKSAIVTLTYDSEWQRDQFLSQVKIPKTITVSTGFMSI
B14: E2-123 (methionine, valine and the C-terminal 121 amino acids of HPV16 E2) (other)
chain: MVPDTGNPCHTTKLLHRDSVDSAPILTAFNSSHKGRINCNSNTTPIVHLKGDANTLKCLRYRFKKHCTLYTAVSSTWHWTGHNVKHKSAIVTLTYDSEWQRDQFLSQVKIPKTITVSTGFMSI
B15: BPV1 E2 repressor with a tryptophan to asparagine mutation at amino acid residue 360 (other)
chain: MAGAGRIYYSRFGDEAARFSTTGHYSVRDQDRVYAGVSSTSSDFRDRPDGVWVASEGPEGDPAGKEAEPAQPVSSLLGSPACGPIRAGLGWVRDGPRSHPYNFPAGSGGSILRSSSTPVQGTVPVDLASRQEEEEQSPDSTEEEPVTLPRRTTNDGFHLLKAGGSCFALISGTANQVKCYRFRVKKNHRHRYENCTTTNFTVADNGAERQGQAQILITFGSPSQRQDFLKHVPLPPGMNISGFTASLDF
B16: BPV1 E2 mutant 333V, full-length form (other)
chain: METACERLHVAQETQMQLIEKSSDKLQDHILYWTAVRTENTLLYAARKKGVTVLGHCRVPHSVVCQERAKQAIEMQLSLQELSKTEFGDEPWSLLDTSWDRYMSEPKRCFKKGARVVEVEFDGNASNTNWYTVYSNLYMRTEDGWQLAKAGADGTGLYYCTMAGAGRIYYSRFGDEAARFSTTGHYSVRDQDRVYAGVSSTSSDFRDRPDGVWVASEGPEGDPAGKEAEPAQPVSSLLGSPACGPIRAGLGWVRDGPRSHPYNFPAGSGGSILRSSSTPVQGTVPVDLASRQEEEEQSPDSTEEEPVTLPRRTTNDGFHLLKAGGSCFALISVTANQVKCYRFRVKKNHRHRYENCTTTWFTVADNGAERQGQAQILITFGSPSQRQDFLKHVPLPPGMNISGFTASLDF

molecular target: full-length native BPV1 E2 trans-activator protein (bovine papillomavirus type 1 (BPV1)) (UniProt P03122); test: not given

Question: “BPV1 E2 mutant 370I in the E2 repressor format (C-terminal 249 amino acids) (from UniProt P03122)” was tested. Which Repression as % decrease in trans-activation by E2 did it give?
Answer: Its Repression as % decrease in trans-activation by E2 is 66.1%.

Question: With “BPV1 E2 mutant 411* in the E2 repressor format (from UniProt P03122)” as the molecule, how does the Repression as % decrease in trans-activation by E2 read?
Answer: The Repression as % decrease in trans-activation by E2 was 4.5%.

Question: For “BPV1 E2 mutant 316Y in the E2 repressor format (C-terminal 249 amino acids) (from UniProt P03122)”, which Repression as % decrease in trans-activation by E2 is on record?
Answer: The Repression as % decrease in trans-activation by E2 was 8%.

Question: For “BPV1 E2 mutant 317STOP in the E2 repressor format (from UniProt P03122)”, which Repression as % decrease in trans-activation by E2 is on record?
Answer: The Repression as % decrease in trans-activation by E2 was 7.1%.

Question: For “BPV1 E2 mutant 374S/375L/391I (3SLI) in the E2 repressor format (C-terminal 249 amino acids) (from UniProt P03122)”, which Repression as % decrease in trans-activation by E2 is on record?
Answer: Its Repression as % decrease in trans-activation by E2 is 39%.

Question: With “BPV1 E2 mutant 402* in the E2 repressor format (from UniProt P03122)” as the molecule, how does the Repression as % decrease in trans-activation by E2 read?
Answer: Its Repression as % decrease in trans-activation by E2 is 45.2%.

Question: How did the Repression as % decrease in trans-activation by E2 turn out when “BPV1 E2 mutant 366Y/376L in the E2 repressor format (C-terminal 249 amino acids) (from UniProt P03122)” was run?
Answer: Its Repression as % decrease in trans-activation by E2 is 16.1%.

Question: For “BPV1 E2 mutant 408* in the E2 repressor format (from UniProt P03122)”, which Repression as % decrease in trans-activation by E2 is on record?
Answer: Its Repression as % decrease in trans-activation by E2 is 59.5%.

molecular target: full-length HPV16 E2 protein (human papillomavirus type 16 (HPV16)) (UniProt P03120); test: not given

Question: Which % REPRESSION (hGH reporter) does the source give for “native BPV1 E2 repressor (C-terminal 249 amino acids of the BPV1 E2 protein) (from UniProt P03122)” here?
Answer: Its % REPRESSION (hGH reporter) is 100%.

molecular target: full-length native BPV1 E2 trans-activator protein (bovine papillomavirus type 1 (BPV1)) (UniProt P03122); test: not given; remark: another data set of the same source

Question: Which % repression of E2-dependent trans-activation (CAT or hGH reporter) does the source give for “native BPV1 E2 repressor (C-terminal 249 amino acids of the BPV1 E2 protein) (from UniProt P03122)” here?
Answer: Its % repression of E2-dependent trans-activation (CAT or hGH reporter) is over 80%.

molecular target: full-length native BPV1 E2 trans-activator protein (bovine papillomavirus type 1 (BPV1), UniProt P03122); test: cell-based or functional assay

Question: How did the “Repression as % decrease in trans-activation by E2” value (“Repression as % decrease” below) turn out when B1 was run?
Answer: Its value is 0%.

Question: For B2, which “Repression as % decrease” value is on record?
Answer: The value was 89.6%.

Question: B3 was tested. Which “Repression as % decrease” value did it give?
Answer: Its value is 95.6%.

Question: For B4, which “Repression as % decrease” value is on record?
Answer: The value was 93.5%.

Question: Which “Repression as % decrease” value does the source give for B5 here?
Answer: Its value is 81.4%.

Question: For B6, which “Repression as % decrease” value is on record?
Answer: The value was 86.9%.

Question: Which “Repression as % decrease” value does the source give for B7 here?
Answer: The value was 91.7%.

Question: With B8 as the molecule, how does the “Repression as % decrease” value read?
Answer: Its value is 82.6%.

Question: B9 was tested. Which “Repression as % decrease” value did it give?
Answer: The value was 76.2%.

Question: How did the “Repression as % decrease” value turn out when B10 was run?
Answer: Its value is 32.3%.

Question: How did the “Repression as % decrease” value turn out when B11 was run?
Answer: Its value is 90.4%.

Question: B12 was tested. Which “Repression as % decrease” value did it give?
Answer: The value was 86.1%.

molecular target: full-length HPV16 E2 protein (human papillomavirus type 16 (HPV16), UniProt P03120); test: cell-based or functional assay

Question: For B13, which “% REPRESSION (hGH reporter)” value is on record?
Answer: The value was 87.2%.

Question: How did the “% REPRESSION (hGH reporter)” value turn out when B14 was run?
Answer: The value was 100%.

Question: How did the “% REPRESSION (hGH reporter)” value turn out when B15 was run?
Answer: The value was 0%.

Molecular target: the molecule itself
Test: homodimerization; UV cross-linking, SDS-PAGE, immunoblot

Question: Does B16 bind?
Answer: Result: no binding
